# Experimental data: patent publication US11278600B2, “Human alpha-galactosidase variants” (Codexis, Inc., priority 2014, dated 2022)
# Positions count from the first letter of the chain named.
# B1: 41 (protein)
# chain: LDNGLARTPTMGWLHWERFMCNLDCQEEPDSCISEKLFMEMAELMVSEGWKDAGYEYLCIDDCWMAPQRDSEGRLQADPQRFPHGIRQLANYVHSKGLKLGIYADVGNKTCAGFPGSFGYYDIDAQTFADWGVDLLKFDGCYCDSLENLADGYKHMSLALNRTGRSIVYSCEWPLYMWPFQKPNYTEIRQYCNHWRNFADIDDSWKSIKSILDWTSFNQERIVDVAGPGGWNDPDMLVIGNFGLSWNQQVTQMALWAIMAAPLFMSNDLRHISPQAKALLQDKDVIAINQDPLGKQGYQLRQGDNFEVWERPLSGLAWAVAMINRQEIGGPRSYTIAVASLGKGVACNPACFITQLLPVKRKLGFYEWTSRLRSHINPTGTVLLQLENTMQMSKDTLL
# modifications: Synthetic Polypeptide sequence of Variant No. 41 of mature Human GLA
# B2: 50 (protein)
# chain: B1 chain with F180S, T396L
# modifications: Synthetic Polypeptide sequence of Variant No. 50 of mature Human GLA
# B3: 56 (protein)
# chain: B1 chain with F365I, T396L
# modifications: Synthetic Polypeptide sequence of Variant No. 56 of mature Human GLA
# B4: 49 (protein)
# chain: B1 chain with F180R, T396L
# modifications: Synthetic Polypeptide sequence of Variant No. 49 of mature Human GLA
# B5: 53 (protein)
# chain: B1 chain with F217R, T396L
# modifications: Synthetic Polypeptide sequence of Variant No. 53 of mature Human GLA
# B6: 47 (protein)
# chain: B1 chain with E387T, T396L
# modifications: Synthetic Polypeptide sequence of Variant No. 47 of mature Human GLA
# B7: 44 (protein)
# chain: B1 chain with E387K, T396L
# modifications: Synthetic Polypeptide sequence of Variant No. 44 of mature Human GLA
# B8: 51 (protein)
# chain: B1 chain with F198S, T396L
# modifications: Synthetic Polypeptide sequence of Variant No. 51 of mature Human GLA
# B9: 55 (protein)
# chain: B1 chain with F352V, F365I, T396L
# modifications: Synthetic Polypeptide sequence of Variant No. 55 of mature Human GLA
# B10: 54 (protein)
# chain: B1 chain with F352I, T396L
# modifications: Synthetic Polypeptide sequence of Variant No. 54 of mature Human GLA
# B11: 48 (protein)
# chain: B1 chain with E40D, T396L
# modifications: Synthetic Polypeptide sequence of Variant No. 48 of mature Human GLA
# B12: 46 (protein)
# chain: B1 chain with E387R, T396L
# modifications: Synthetic Polypeptide sequence of Variant No. 46 of mature Human GLA
# B13: 42 (protein)
# chain: B1 chain with E367N, T396L
# modifications: Synthetic Polypeptide sequence of Variant No. 42 of mature Human GLA
# B14: 52 (protein)
# chain: B1 chain with F217D, T396L
# modifications: Synthetic Polypeptide sequence of Variant No. 52 of mature Human GLA
# B15: 43 (protein)
# chain: B1 chain with E367T, T396L
# modifications: Synthetic Polypeptide sequence of Variant No. 43 of mature Human GLA
# B16: 45 (protein)
# chain: B1 chain with E387Q, T396L
# modifications: Synthetic Polypeptide sequence of Variant No. 45 of mature Human GLA
# Columns and labels:
# Assay type in all cases: biochemical
# [1] = HTP-analysis of yeast culture supernatants, no challenge (MUGal hydrolysis); settings: activity of the variant/activity of WT GLA (SEQ ID NO: 5), yeast supernatant
# In short: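 GLA variants expressed in yeast INVSc1, secreted into SD-Ura broth over 66-84 h at 30° C; clarified supernatants tested without challenge. Supernatant mixed with McIlvaine buffer pH 4.8 and 2 mM MUGal (citrate/KCl, pH 4.6), 37° C for 30-180 min, carbonate-quenched, fluorescence Ex 355/Em 448 nm.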
# [2] = HTP-analysis of supernatants pretreated with acid (MUGal hydrolysis); settings: challenge at pH 4.2; activity of the variant/activity of WT GLA (SEQ ID NO: 5); yeast supernatant
# In short: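 Fluorescence of MUGal hydrolysis (Ex. 355 nm, Em. 448 nm) is read after sodium carbonate quench. The enzyme source is INVSc1 yeast culture supernatant, first exposed to pH 3.3-4.3 McIlvaine buffer at 37° C. for 1-3 h, then reacted at pH 4.8 for 30-180 minutes.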
# [3] = HTP-analysis of supernatants pretreated with base (MUGal hydrolysis); settings: challenge at pH 7.1; activity of the variant/activity of WT GLA (SEQ ID NO: 5); yeast supernatant
# In short: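 Supernatants from INVSc1 yeast expressing GLA variants (SD-Ura, 66-84 h, 30° C) were mixed with McIlvaine buffer pH 7.0-8.2 or 200 mM sodium bicarbonate pH 9.1-9.7 and held 1-18 h at 37° C. Residual activity was then measured on MUGal at pH 4.8/4.3, 37° C, 30-180 min, by fluorescence (Ex 355/Em 448 nm).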
Molecule,Relative Activity of GLA Variants After No Challenge (NC) [1],Relative Activity of GLA Variants After Challenge at pH 4.2 [2],Relative Activity of GLA Variants After Challenge at pH 7.1 [3]
B1,+ (+ = 0.5 to 1.5 relative activity over WT GLA (SEQ ID NO: 5)),+ (+ = 0.5 to 1.5 relative activity over WT GLA (SEQ ID NO: 5)),+ (+ = 0.5 to 1.5 relative activity over WT GLA (SEQ ID NO: 5))
B2,++ (++ = >1.5 to 2.5 relative activity over WT GLA (SEQ ID NO: 5)),++ (++ = >1.5 to 2.5 relative activity over WT GLA (SEQ ID NO: 5)),++ (++ = >1.5 to 2.5 relative activity over WT GLA (SEQ ID NO: 5))
B3,++ (++ = >1.5 to 2.5 relative activity over WT GLA (SEQ ID NO: 5)),++ (++ = >1.5 to 2.5 relative activity over WT GLA (SEQ ID NO: 5)),++ (++ = >1.5 to 2.5 relative activity over WT GLA (SEQ ID NO: 5))
B4,+ (+ = 0.5 to 1.5 relative activity over WT GLA (SEQ ID NO: 5)),+ (+ = 0.5 to 1.5 relative activity over WT GLA (SEQ ID NO: 5)),+ (+ = 0.5 to 1.5 relative activity over WT GLA (SEQ ID NO: 5))
B5,+ (+ = 0.5 to 1.5 relative activity over WT GLA (SEQ ID NO: 5)),++ (++ = >1.5 to 2.5 relative activity over WT GLA (SEQ ID NO: 5)),++ (++ = >1.5 to 2.5 relative activity over WT GLA (SEQ ID NO: 5))
B6,+ (+ = 0.5 to 1.5 relative activity over WT GLA (SEQ ID NO: 5)),++ (++ = >1.5 to 2.5 relative activity over WT GLA (SEQ ID NO: 5)),+ (+ = 0.5 to 1.5 relative activity over WT GLA (SEQ ID NO: 5))
B7,+ (+ = 0.5 to 1.5 relative activity over WT GLA (SEQ ID NO: 5)),++ (++ = >1.5 to 2.5 relative activity over WT GLA (SEQ ID NO: 5)),+ (+ = 0.5 to 1.5 relative activity over WT GLA (SEQ ID NO: 5))
B8,++ (++ = >1.5 to 2.5 relative activity over WT GLA (SEQ ID NO: 5)),++ (++ = >1.5 to 2.5 relative activity over WT GLA (SEQ ID NO: 5)),+ (+ = 0.5 to 1.5 relative activity over WT GLA (SEQ ID NO: 5))
B9,++ (++ = >1.5 to 2.5 relative activity over WT GLA (SEQ ID NO: 5)),+++ (+++ = >2.5 relative activity over WT GLA (SEQ ID NO: 5)),++ (++ = >1.5 to 2.5 relative activity over WT GLA (SEQ ID NO: 5))
B10,+ (+ = 0.5 to 1.5 relative activity over WT GLA (SEQ ID NO: 5)),+ (+ = 0.5 to 1.5 relative activity over WT GLA (SEQ ID NO: 5)),+ (+ = 0.5 to 1.5 relative activity over WT GLA (SEQ ID NO: 5))
B11,+ (+ = 0.5 to 1.5 relative activity over WT GLA (SEQ ID NO: 5)),+ (+ = 0.5 to 1.5 relative activity over WT GLA (SEQ ID NO: 5)),+ (+ = 0.5 to 1.5 relative activity over WT GLA (SEQ ID NO: 5))
B12,+ (+ = 0.5 to 1.5 relative activity over WT GLA (SEQ ID NO: 5)),+++ (+++ = >2.5 relative activity over WT GLA (SEQ ID NO: 5)),+ (+ = 0.5 to 1.5 relative activity over WT GLA (SEQ ID NO: 5))
B13,+++ (+++ = >2.5 relative activity over WT GLA (SEQ ID NO: 5)),+++ (+++ = >2.5 relative activity over WT GLA (SEQ ID NO: 5)),+++ (+++ = >2.5 relative activity over WT GLA (SEQ ID NO: 5))
B14,++ (++ = >1.5 to 2.5 relative activity over WT GLA (SEQ ID NO: 5)),+ (+ = 0.5 to 1.5 relative activity over WT GLA (SEQ ID NO: 5)),++ (++ = >1.5 to 2.5 relative activity over WT GLA (SEQ ID NO: 5))
B15,+ (+ = 0.5 to 1.5 relative activity over WT GLA (SEQ ID NO: 5)),+ (+ = 0.5 to 1.5 relative activity over WT GLA (SEQ ID NO: 5)),+ (+ = 0.5 to 1.5 relative activity over WT GLA (SEQ ID NO: 5))
B16,++ (++ = >1.5 to 2.5 relative activity over WT GLA (SEQ ID NO: 5)),++ (++ = >1.5 to 2.5 relative activity over WT GLA (SEQ ID NO: 5)),++ (++ = >1.5 to 2.5 relative activity over WT GLA (SEQ ID NO: 5))
